For assay [1], the target named is gelsolin (African green monkey (endogenous in CV1)). In words: co-IP.
Assay [2] concerns the target actin (African green monkey (endogenous in CV1)). In words: pull-down.

As to actin (natural protein), in assay [1], the actin:gelsolin 35S intensity ratio, PIP5KI-overexpressing cells turned out to be 25.7% and the actin:gelsolin 35S intensity ratio, β-gal cells came to 39.4%.

Regarding gelsolin (natural protein), in assay [2], the actin:gelsolin staining intensity ratio, PIP5KI-overexpressing cells is 1.25 and the actin:gelsolin staining intensity ratio, β-gal cells turned out to be 1.91.

Turning to profilin (natural protein), the decrease in profilin bound to actin, PIP5KI-overexpressing against β-gal cells in assay [2] is 51%.

The values are drawn from publication PMC2198810.
